Laboratory results published in publication PMC7913776 (Nucleic Acids Research, 2021).

Biological target: T1, GST-tagged full-length BACH1 protein (mouse, UniProt P97302 1-739)
T1 sequence: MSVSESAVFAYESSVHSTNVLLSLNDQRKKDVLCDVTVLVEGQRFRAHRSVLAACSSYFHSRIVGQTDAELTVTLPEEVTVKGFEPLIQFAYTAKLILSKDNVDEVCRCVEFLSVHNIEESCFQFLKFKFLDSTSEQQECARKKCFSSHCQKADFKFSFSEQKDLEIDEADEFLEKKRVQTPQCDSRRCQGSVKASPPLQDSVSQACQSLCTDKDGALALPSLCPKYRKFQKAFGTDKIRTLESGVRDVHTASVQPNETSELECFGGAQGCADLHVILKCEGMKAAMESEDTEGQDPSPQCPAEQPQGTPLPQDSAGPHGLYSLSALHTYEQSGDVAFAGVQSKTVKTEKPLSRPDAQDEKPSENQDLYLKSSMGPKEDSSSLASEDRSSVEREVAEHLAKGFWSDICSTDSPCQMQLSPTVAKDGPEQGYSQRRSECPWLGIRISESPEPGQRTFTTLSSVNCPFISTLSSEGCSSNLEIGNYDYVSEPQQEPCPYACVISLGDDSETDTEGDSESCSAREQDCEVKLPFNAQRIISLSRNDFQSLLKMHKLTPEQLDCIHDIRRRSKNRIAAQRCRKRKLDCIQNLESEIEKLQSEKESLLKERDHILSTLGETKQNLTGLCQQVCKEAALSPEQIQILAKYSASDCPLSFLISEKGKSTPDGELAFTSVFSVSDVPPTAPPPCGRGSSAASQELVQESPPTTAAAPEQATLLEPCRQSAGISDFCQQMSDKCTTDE
Assay: pull-down

binding result: binds
B1: HIS-tagged NANOG (natural protein)
chain: MSVGLPGPHSLPSSEEASNSGNASSMPAVFHPENYSCLQGSATEMLCTEAASPRPSSEDLPLQGSPDSSTSPKQKLSSPEADKGPEEEENKVLARKQKMRTVFSQAQLCALKDRFQKQKYLSLQQMQELSSILNLSYKQVKTWFQNQRMKCKRWQKNQWLKTSNGLIQKGSAPVEYPSIHCSYPQGYLVNASGSLSMWGSQTWTNPTWSSQTWTNPTWNNQTWTNPTWSSQAWTAQSWNGQPWNAAPLHNFGEDFLQPYVQLQQNFSASDLEVNLEATRESHAHFSTPQALELFLNYSVTPPGEI
